From PMC3553500 (2013)

Biological target: GAPDH (Homo sapiens, UniProt P04406)
Assay: ELISA

GAPDH, sequence (P04406 2-335): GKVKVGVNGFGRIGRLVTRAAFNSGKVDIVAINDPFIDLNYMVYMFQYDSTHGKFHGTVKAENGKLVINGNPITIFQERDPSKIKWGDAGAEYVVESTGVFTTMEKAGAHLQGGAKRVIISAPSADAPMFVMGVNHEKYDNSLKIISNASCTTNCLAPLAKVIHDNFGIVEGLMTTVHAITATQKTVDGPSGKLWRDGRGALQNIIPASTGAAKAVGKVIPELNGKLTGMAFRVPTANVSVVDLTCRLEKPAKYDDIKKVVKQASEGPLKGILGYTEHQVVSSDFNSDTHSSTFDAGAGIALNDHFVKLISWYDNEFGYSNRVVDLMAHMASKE

B1: TRAF2 (protein)
chain: AAASVTPPGSLELLQPGFSKTLLGTKLEAKYLCSACRNVLRRPFQAQCGHRYCSFCLASILSSGPQNCAACVHEGIYEEGISILESSSAFPDNAARREVESLPAVCPSDGCTWKGTLKEYESCHEGRCPLMLTECPACKGLVRLGEKERHLEHECPERSLSCRHCRAPCCGADVKAHHEVCPKFPLTCDGCGKKKIPREKFQDHVKTCGKCRVPCRFHAIGCLETVEGEKQQEHEVQWLREHLAMLLSSVLEAKPLLGDQSHAGSELLQRCESLEKKTATFENIVCVLNREVERVAMTAEACSRQHRLDQDKIEALSSKVQQLERSIGLKDLAMADLEQKVLEMEASTYDGVFIWKISDFARKRQEAVAGRIPAIFSPAFYTSRYGYKMCLRIYLNGDGTGRGTHLSLFFVVMKGPNDALLRWPFNQKVTLMLLDQNNREHVIDAFRPDVTSSSFQRPVNDMNIASGCPLFCPVSKMEAKNSYVRDDAIFIKAIVDLTGL
In the case of B1, the Kd is reported as 96 µM.
